Source: patent CN115197317A (ANYUAN PHARMACEUTICAL TECH SHANGHAI CO LTD, dated 2022)

Columns and labels:
刺突S-鼠Fc融合蛋白 (S-mFc) = 刺突S-鼠Fc融合蛋白 (S-mFc) (SARS-CoV-2; mouse, UniProt P0DTC2 14-1213)
[1] = target: T1, SARS-CoV-2 S蛋白 (ACRO Biosystems, coated in ELISA 7.1) (SARS-CoV-2, UniProt P0DTC2 16-1213); test: indirect ELISA, S protein coated at 0.1 μg/mL
T1 construct: also called SARS-CoV S蛋白(ACRO Biosystems)

SARS-CoV-2 S蛋白(His标签) = SARS-CoV-2 S蛋白(His标签) (SARS-CoV-2, UniProt P0DTC2 16-1213); test: competition ELISA, S protein (His tag) coated, HRP-hACE2-Fc as competitor

Binder	IC50 (刺突S-鼠Fc融合蛋白 (S-mFc)) [µg/mL]	EC50 [1] [µg/mL]	IC50 (SARS-CoV-2 S蛋白(His标签)) [µg/mL]
鼠源抗体ST-35-4 (antibody, V domains shown) VH: QVQLQQPGAELVRPGASMKLSCKTSGYTFTTYTIHWIKQTPGQGLEWIGAVNPGNGDTSYSQKFKGRAILTADKSSNTASMQFSSLTSEDSAVYYCARDGYPYFYALDSWGQGTSVTVSS VL: DIQMTQSPSSLSASLGERVSLTCRAGQEISSYLTWLQQKPDGTIKRLIYAASTLDSGVPKRFSGSRSGSDYSLTINSLESEDFADYYCLQYASYPWTFGGGTKVEIK	0.0118		
人源化抗体hST-10-4 (antibody, V domains shown) VH: EVTLKESGPALVKPTQTLTLTCTFSGFSLDSSNMGVSWIRQPPGKGLEWLAHIYWGDDNRYNPSLKSRLTVSKDTSKNQVVLTMTNMEPVDTATYYCARKWNWDWFPYWGQGTTVTVSS VL: DIVLTQSPDSLAVSLGERATINCRASKSVSASGYSFMHWYQQKPGQPPKLLISLASNLESGVPARFSGSGSGTDFTLTISRLQAEDVAVYYCQHSRELPLTFGAGTKLEIKR	0.0123	0.0023	0.257
人源化抗体hST-35-4 (antibody, V domains shown) VH: EVQLVQSGAEVKKPGSSVKVSCKTSGYTFTTYTIHWIRQAPGQGLEWIGAVNPGNADTSYSQKFKGRATLTADKSSNTAYMELSSLRSEDTAVYYCARDAYPYFYALDSWGQGTTVTVSS VL: DIQMTQSPSSLSASVGDRVTITCRAGQEISSYLTWLQQKPEGTIKRLIYAASTLDSGVPKRFSGSRSGSDYTLTISSLQPEDFATYYCLQYASYPWTFGGGTKVEIKR	0.0163	0.0018	0.194
鼠源抗体ST-10-4 (antibody, V domains shown) VH: QVTLKESGPGILQPSQTLTLTCSFSGFSLDSSNMGVSWIRQTSGKGLEWLAHIYWGDDNRYNPSLKSRLTVSKDTSSNQVFLKLTNVDTADTATYYCARKWNWDWFPYWGQGTLVTVSA VL: DIVLTQSPTSLPVSLGQRATISCRASKSVSASGYSFMHWYQQKPGQPPKLLISLASNLESGVPARFSGSGSGTDFTLNIHPVEEEDAATYYCQHSRELPLTFGAGTKLELK	0.0165		
